Assay results reported in publication PMC11681983 (Biochemistry Research International, 2024).
Values belong to the binder of their own block, whether it stands above or below them.

Assays:
Conditions in all cases: both partners purified
IL-17A [1] = biological target: T1, IL-17A (human, UniProt Q16552); test: SPR; Biacore, n = 3
T1 construct: IL-17A

IL-17A [2] = biological target: T1, IL-17A; test: ELISA; direct binding ELISA to IL-17A or VEGF, measured in duplicate, n = 2; who was coated is not told
IL-17A [3] = biological target: T1, IL-17A; test: ELISA; ELISA-based assay of blocking the interaction of IL-17A with IL-17RA, in duplicate, n = 3
VEGF = biological target: T2, VEGF (UniProt P15692 1-395); test: ELISA; direct binding ELISA to IL-17A or VEGF, measured in duplicate, n = 2; who was coated is not told
T2 construct: vascular endothelial growth factor (VEGF); Probably VEGF165 (surmised); also called vascular endothelial growth factor
T2 sequence (P15692 whole entry): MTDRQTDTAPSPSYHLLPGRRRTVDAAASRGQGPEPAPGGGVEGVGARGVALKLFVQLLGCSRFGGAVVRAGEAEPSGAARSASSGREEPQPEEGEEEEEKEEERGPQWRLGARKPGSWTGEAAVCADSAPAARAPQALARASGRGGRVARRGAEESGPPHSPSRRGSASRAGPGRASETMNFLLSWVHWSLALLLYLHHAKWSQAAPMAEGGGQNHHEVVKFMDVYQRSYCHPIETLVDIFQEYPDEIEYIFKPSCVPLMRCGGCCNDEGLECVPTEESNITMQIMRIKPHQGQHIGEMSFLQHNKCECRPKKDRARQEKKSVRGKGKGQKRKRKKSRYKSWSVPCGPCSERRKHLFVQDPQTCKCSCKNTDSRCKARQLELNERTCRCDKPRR

T1 sequence (Q16552 24-155): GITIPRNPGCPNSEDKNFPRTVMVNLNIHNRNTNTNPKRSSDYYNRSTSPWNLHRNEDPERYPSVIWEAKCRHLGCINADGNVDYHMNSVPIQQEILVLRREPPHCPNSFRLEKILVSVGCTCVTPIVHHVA

Kd (IL-17A [1]): 0.0184 nM | EC50 (IL-17A [2]): 0.05 nM | IC50 (IL-17A [3]): 2.77 nM
B1: bispecific fusion protein 17V05 (bispecific antibody, V domains shown)
VH: EVQLVESGGGLVQPGGSLRLSCAASGFTFSSFDMSWGRQAPGKRLEWVAFMSSGGSTYYPDSVKGRFTISRDNSKNTLYLQMNSLRAEDTAVYYCARGERYGSYWGQGTLVTVSS
VL: DIQMTQSPSSLSASVGDRVTITCKASDHINNWLAWYQQKPGKAPKLLISGATSLETGVPSRFSGSGSGTDYTLTISSLQPEDFATYYCQQYWSTPFTFGSGTKLEIK
notes: heavy chain of the clinical stage anti-IL-17A mAb 608 (Sunshine Guojian Pharmaceutical); linker, printed as (G4S) x 3; light chain of the anti-IL-17A mAb 608; Variant of 17V01 with M464A in D2; Two copies of D2, one at the C-terminus of each heavy chain of 608; also called bispecific anti-IL17/VEGF fusion trap; source: 293HEK cells, one-step purification with protein A chromatography (told of the …)

EC50 (VEGF): 0.39 nM
B2: D2-Fc, a fusion protein with D2 fused to the N-terminus of an Fc (Fc fusion)
chain: SDTGRPFVEMYSEIPEIIHMTEGRELVIPCRVTSPNITVTLKKFPLDTLIPDGKRIIWDSRKGFIISNATYKEIGLLTCEATVNGHLYKTNYLTHRQTNTIID
modifications: Limits are not printed. VEGFR1 D2 is taken as S129-D231, the aflibercept / Flt1 D2 convention. The Fc carrier is omitted; two copies assume an Fc dimer. The printed clip site M464/Y465 (fusion …)
